From article PMC7203112, “Structural basis for the complex DNA binding behavior of the plant stem cell regulator WUSCHEL”

T1: MBP-WUS-FL (Arabidopsis thaliana, UniProt Q9SB92 1-292)
T1 sequence: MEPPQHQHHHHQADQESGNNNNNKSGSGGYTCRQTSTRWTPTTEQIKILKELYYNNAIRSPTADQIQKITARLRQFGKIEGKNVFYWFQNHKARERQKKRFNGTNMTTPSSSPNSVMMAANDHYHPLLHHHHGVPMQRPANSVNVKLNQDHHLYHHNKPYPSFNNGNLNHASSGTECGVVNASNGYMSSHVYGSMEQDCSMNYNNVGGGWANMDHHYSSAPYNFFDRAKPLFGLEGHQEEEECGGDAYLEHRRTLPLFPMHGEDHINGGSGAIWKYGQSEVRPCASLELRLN

T2: WUS-HD T35R (Arabidopsis thaliana, UniProt Q9SB92 34-103, T35R)
T2 sequence: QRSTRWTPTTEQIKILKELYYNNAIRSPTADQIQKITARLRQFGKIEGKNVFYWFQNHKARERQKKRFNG

T3: WUS-HD S36R (Arabidopsis thaliana, UniProt Q9SB92 34-103, S36R)
T3 sequence: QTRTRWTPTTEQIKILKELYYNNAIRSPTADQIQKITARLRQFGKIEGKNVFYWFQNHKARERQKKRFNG

T4: WUS-HD F101A (Arabidopsis thaliana, UniProt Q9SB92 34-103, F101A)
T4 sequence: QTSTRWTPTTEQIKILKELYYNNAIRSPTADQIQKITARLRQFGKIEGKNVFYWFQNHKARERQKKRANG

T5: WUS-HD R94K (Arabidopsis thaliana, UniProt Q9SB92 34-103, R94K)
T5 sequence: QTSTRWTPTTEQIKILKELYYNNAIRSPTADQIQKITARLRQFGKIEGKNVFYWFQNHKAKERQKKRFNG

T6: WUS-HD RRK (Arabidopsis thaliana, UniProt Q9SB92 34-103, T35R;S36R;R94K)
T6 sequence: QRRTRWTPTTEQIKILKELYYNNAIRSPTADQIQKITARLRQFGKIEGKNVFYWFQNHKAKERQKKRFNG

B1: f_TGAA (dsDNA)
DNA 1: CATCGTCGTTCATTCAATGGG
DNA 2: CCCATTGAATGAACGACGATG
B2: f_TAAT (dsDNA)
DNA 1: CAATGTGTTAATGGGTTGTT
DNA 2: AACAACCCATTAACACATTG

Legend:
MBP-WUS-FL = target: T1, MBP-WUS-FL; assay: EMSA; MST: 20 mM Tris-HCl pH 8.0, 75 mM NaCl, 10 mM MgCl2, 0.05% Tween-20, 20 C, 50 nM YFP-WUS; ITC: same without Tween, 20 C; EMSA: 10 mM Tris-HCl pH 8.0, 75 mM NaCl, 50 ug/ml poly(dI-dC), 1 mM EDTA, 1 mM DTT, 5% glycerol; details: protein: recombinant; tags: N-terminal His6-MBP; chain copies: 2; label: Cy5; blunt
WUS-HD T35R [1] = target: T2, WUS-HD T35R; assay: as above; details: protein: recombinant; tags: none after TEV cleavage; label: Cy5; blunt
WUS-HD S36R [2] = target: T3, WUS-HD S36R; assay: as above; details: protein: recombinant; tags: none after TEV cleavage; label: Cy5; blunt
WUS-HD F101A = target: T4, WUS-HD F101A; assay: EMSA; predominantly monomer; probe called 2xTGAA; MST: 20 mM Tris-HCl pH 8.0, 75 mM NaCl, 10 mM MgCl2, 0.05% Tween-20, 20 C, 50 nM YFP-WUS; ITC: same without Tween, 20 C; EMSA: 10 mM Tris-HCl pH 8.0, 75 mM NaCl, 50 ug/ml poly(dI-dC), 1 mM EDTA, 1 mM DTT, 5% glycerol; details: protein: recombinant; tags: none after TEV cleavage; label: Cy5; blunt
WUS-HD R94K = target: T5, WUS-HD R94K; assay: EMSA; like wt; MST: 20 mM Tris-HCl pH 8.0, 75 mM NaCl, 10 mM MgCl2, 0.05% Tween-20, 20 C, 50 nM YFP-WUS; ITC: same without Tween, 20 C; EMSA: 10 mM Tris-HCl pH 8.0, 75 mM NaCl, 50 ug/ml poly(dI-dC), 1 mM EDTA, 1 mM DTT, 5% glycerol; details: protein: recombinant; tags: none after TEV cleavage; label: Cy5; blunt
WUS-HD T35R [3] = target: T2, WUS-HD T35R; assay: EMSA; predominantly monomer; MST: 20 mM Tris-HCl pH 8.0, 75 mM NaCl, 10 mM MgCl2, 0.05% Tween-20, 20 C, 50 nM YFP-WUS; ITC: same without Tween, 20 C; EMSA: 10 mM Tris-HCl pH 8.0, 75 mM NaCl, 50 ug/ml poly(dI-dC), 1 mM EDTA, 1 mM DTT, 5% glycerol; details: protein: recombinant; tags: none after TEV cleavage; label: Cy5; blunt
WUS-HD S36R [4] = target: T3, WUS-HD S36R; assay: as above; details: protein: recombinant; tags: none after TEV cleavage; label: Cy5; blunt
WUS-HD RRK = target: T6, WUS-HD RRK; assay: EMSA; similar to T35R and S36R; MST: 20 mM Tris-HCl pH 8.0, 75 mM NaCl, 10 mM MgCl2, 0.05% Tween-20, 20 C, 50 nM YFP-WUS; ITC: same without Tween, 20 C; EMSA: 10 mM Tris-HCl pH 8.0, 75 mM NaCl, 50 ug/ml poly(dI-dC), 1 mM EDTA, 1 mM DTT, 5% glycerol; details: protein: recombinant; tags: none after TEV cleavage; label: Cy5; blunt

Binder | Kd (MBP-WUS-FL) | binding result (WUS-HD T35R [1]) | binding result (WUS-HD S36R [2]) | binding result (WUS-HD F101A) | binding result (WUS-HD R94K) | binding result (WUS-HD T35R [3]) | binding result (WUS-HD S36R [4]) | binding result (WUS-HD RRK)
B1 | 360 ± 60 nM | binds | binds | binds | – | – | – | –
B2 | 3150 ± 260 nM | – | – | – | binds | binds | binds | binds
